From US20240092935A1
pKd: −log10 of the molar value.

Target: Asialo-BSM (desialylated bovine submaxillary mucin) (bovine)
Assay: fluorescence binding assay on an Asialo-BSM-coated 96-well plate (0.5 µg/well), biotinylated VVA detected with Alexa Fluor 488 streptavidin, fit with GraphPad Prism

pKd: 7.27
Substance: Vicia villosa agglutinin (VVA), biotinylated (from UniProt P56625 1-185)
